The results in this text go back to publication PMC3648529 (PLoS ONE, 2013).

The target of this experiment is T1, biotinylated human soluble TWEAK (human, UniProt O43508, biotin (site not stated)).
T1 construct: TWEAK, human, soluble form; Captured on a streptavidin (SA) sensor by its biotin; also called biotinylated TWEAK ligand
In words: SPR; Biacore 2000, SA sensor, biotinylated human soluble TWEAK coupled at 150 RU; antibody injected at 100 nM, 2 min association, 5 min dissociation at 25 C in HBS-ET (10 mM HEPES pH 7.4, 150 mM NaCl, 1 mM EDTA, 0.05% Tween 20); half-life from kd of the interval 240-300 s. Conditions: both partners purified. On the technique in general: Surface plasmon resonance follows binding to a sensor surface in real time, without labels.

T1 sequence (O43508 94-249): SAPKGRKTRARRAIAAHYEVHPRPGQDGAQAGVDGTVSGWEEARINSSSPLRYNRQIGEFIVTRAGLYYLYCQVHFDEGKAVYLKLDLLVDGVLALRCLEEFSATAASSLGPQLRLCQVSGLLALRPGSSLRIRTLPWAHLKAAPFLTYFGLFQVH

B1: chi TW-305 (chimeric rabbit anti-TWEAK monoclonal antibody) (antibody, V domains shown)
VH: QEQLVESGGGLVQPGGSLTLSCKASGFDFSTYYMSWVRQAPGKGLEWIGTVYVRQGTTYYASWLNGRFTISSDNAQNTVDLKMNSLTAADTATYFCAKGGYNYDDAFVIWGPGTLVTVSF
VL: AIEMTQTPFSVSAAVGGTVTINCQASQNIYSNLAWYQQKPGQPPKLLMYTASYLASGVPSRFKGSGSRTEYTLTISGVQCADAATYYCQTAYYNSRPDTVAFGGGTEVVVK
notes: Fab part as the heavy chain of m5 (PDB 4HT1); as the light chain of m5 (PDB 4HT1); Whole antibody from which the Fab m5 was cut; source: produced by standard procedures
Take B1: the “t/2 diss (half-life of immunocomplex)” value came to 2.45 h.
